As usually defined, the Kd is the equilibrium constant for the complex coming apart.

For the assay, the target named is WT ACE2(740)-Fc (human, UniProt Q9BYF1 18-740). Briefly: BLI.

B1: HCoV-NL63 spike RBD (domain or fragment)
chain: QHTDINFTATASFGGSCYVCKPHQVNISLNGNTSVCVRTSHFSIRYIYNRVKSGSPGDSSWHIYLKSGTCPFSFSKLNNFQKFKTICFSTVEVPGSCNFPLEATWHYTSYTIVGALYVTWSEGNSITGVPYPVSGI
As for B1, the Kd came to 22 nM.

The values above are taken from article doi:10.1101/2020.07.31.231746 (2020).
